Data taken from US7642046B2, “Method for monitoring recruitment of proteins to the intracellular domain of a receptor in intact cells” (priority 2001, dated 2010).

Key:
Assay type in all cases: cell-based
CD40 mutants = target: T1, CD40 mutants (Homo sapiens, UniProt P25942, E235A); assay: Recruitment assay in intact cells with CD40 mutants (deletions or point mutations in TRAF binding sites); conditions: E235A, relative to wild type CD40
T1 construct: expressed in transfected cells; host or cells: 293T
T1 sequence (P25942 21-277 E235A): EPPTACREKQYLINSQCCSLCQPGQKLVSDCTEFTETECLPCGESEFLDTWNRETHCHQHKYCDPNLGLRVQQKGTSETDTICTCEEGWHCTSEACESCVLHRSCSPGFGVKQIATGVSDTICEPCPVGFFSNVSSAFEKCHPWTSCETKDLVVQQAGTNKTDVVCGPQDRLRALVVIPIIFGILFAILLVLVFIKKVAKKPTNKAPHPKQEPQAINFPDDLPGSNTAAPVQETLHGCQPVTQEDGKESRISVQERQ
Experimental: The lysates were cleared by centrifugation at 15000 G at 4° C. in a micro-centrifuge, 3 fold serially diluted (with lysis buffer containing 1% bovine serum albumin) and then every diluted sample incubated for 2 hours at room temperature (or overnight) in wells of ELISA microtiter plates coated with a mAb (Ro1) specific to the CD40 extra-cellular domain (Schwabe et al. 1997). For control purposes, instead of the wild type CD40 plasmid, a plasmid encoding a CD40 mutant lacking the entire signaling domain was used for transfection and transient expression (CD401-222, FIG. 1B). Following incubation exhaustive washes were carried out on the microtiter plates to remove any unbound protein [about 10 washing steps with PBS containing 0.05% Tween 20) PBS/Tween)]. To detect bound TRAF1, anti TRAF1 specific antibodies were loaded into the plates, incubated for about 3 hours at room temperature, […] by extensive washes to remove unbound antibody and detecting the bound antibody with an HRP conjugated secondary antibody. All antibodies (except when used as solid phase antibody) were diluted in PBS/Tween containing 1% BSA.
(§1) The recruitment of TRAF to CD40 can be quantitatively measured using the assay described in example 1. For that purpose, the assay conditions were adjusted in such a way that TRAF expression was in significant excess over the expression of CD40. This was the case when the TRAF expression plasmid was used at a two to three fold excess over the CD40 expression plasmid. The CD40 bound TRAF concentration was measured as described in example 1. A reference extract containing CD40/TRAF complexes served as a standard in each assay. This standard extract consisted of a large pool extract from cells that had been co-transfected with the plasmids encoding CD40/TRAF1, CD40/TRAF2, CD40/TRAF3, CD40/TRAF5 and CD40/TRAF6. The extracts were tested for the presence of CD40/TRAF complexes and the complex concentrations in each extract were arbitrarily defined as 1000 U/ml. The extracts were frozen in small aliquots and kept at −80° C. until further use. By comparing unknown samples to these extracts, it was possible to determine the relative CD40-TRAF complex concentrations in arbitrary units. The necessary normalization for sample-to-sample variations in the CD40 expression was calculated with the following formula: […]
The quantitative version of the TRAF recruitment assay as described in example 3 was used to compare CD40 and various CD40 mutants with respect to their TRAF recruitment behaviour. TRAF 1, 2, 3, 5 and 6 were examined. […] Additional deletion of the TRAF1/2/3/5 binding motif PXQXT254 at amino acid position 250 to 254 reduced the binding of all 5 TRAFs test to background levels (1-254EA in FIG. 3B). […]

LTβR = target: T2, LTβR (Homo sapiens, UniProt P25942+P36941); assay: Recruitment assay with hybrid receptor (CD40 extracellular domain, LTβR transmembrane and intracellular domain); conditions: 293T cells
T2 construct: cDNA fragments encoding for the transmembrane and cytoplasmic domains of the LTβR, TACI, the p75TNF receptor, CD27; expressed in transfected cells; host or cells: 293T
T2 sequence (P25942+P36941 fused): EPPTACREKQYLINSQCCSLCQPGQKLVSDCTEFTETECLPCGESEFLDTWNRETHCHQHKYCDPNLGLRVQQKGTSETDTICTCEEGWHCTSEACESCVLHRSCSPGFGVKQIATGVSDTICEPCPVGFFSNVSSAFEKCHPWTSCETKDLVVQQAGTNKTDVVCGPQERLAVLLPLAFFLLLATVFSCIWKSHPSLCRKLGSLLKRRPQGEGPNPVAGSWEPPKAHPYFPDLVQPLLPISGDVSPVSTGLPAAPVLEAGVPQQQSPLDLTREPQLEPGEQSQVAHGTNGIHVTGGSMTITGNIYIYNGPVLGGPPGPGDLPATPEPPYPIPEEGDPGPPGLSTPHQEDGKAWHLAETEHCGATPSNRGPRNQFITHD
Experimental: as §1
Recruitment of various TRAFs to receptors different to CD40, was tested by the recruitment assay described in example 1 by transforming cells with expression plasmids encoding hybrids receptors comprising the extracellular domain of CD40 and transmembrane and intracellular domain of anyone of the following receptors: BCMA (Madry et al. 1998 and Hatzoglou et al. 2000) the LTβR-receptor (Mosialos et al. 1995, Crowe et al. 1994, Nakano et al. 1996), TACI (von Bulow et al. 1997, Xia et al. 2000) the p75TNFR (Rothe et al. 1994) and the CD27 (Gravestein et al. 1998, Akiba et al. 1998) (for details of constructs see example 7). Measurement of TRAF recruitment to the signalling domains of BCMA the LTβR-receptor TACI the p75TNFR or the CD27 was carried out by co-transfecting 293T cells with a plasmid encoding anyone of the above hybrid receptors together with a plasmid encoding TRAF and measurement of the TRAF/Receptor complex using the ELISA sandwich described in example 1 and the quantitation as described in example 3. The assay with the hybrid receptors is schematically represented in FIG. 4A. The results shown in FIG. 4B indicate that, using the assay monitoring recruitment in intact cells, any TRAF recruiting receptor of the TNF/NGF family can be examined with the same antibody sandwich assay described in example 1 and the amount of TRAF-receptor/CD40 hybrid complex can be monitored as described in example 3. […] Recruitment of TRAF3 to all the receptors tested is similar. […]

CD40 = target: T3, CD40 (Homo sapiens, UniProt P25942); assay: Recruitment of NIK to CD40 via TRAF2 in 293T cells, anti-CD40 capture ELISA with anti NIK detection
T3 construct: expressed in transfected cells; host or cells: HEK 293T
T3 sequence (P25942 21-277): as the sequence (P25942 21-277 E235A) above, with A215E counted along it
Source text: The assay described in example 1 can be used to measure recruitment of signal proteins, e.g. NIK (a downstream mediator in the NF-κB pathway Malinin et al. 1997) to a cytokine receptor, e.g. CD40 via an adaptor protein e.g. TRAF2. Expression plasmids encoding CD40, TRAF2, NIK (in pcDNA3.1) and myc-tagged IKKα were co-transfected into 293T (at a ratio of 1:1.75:1.75:1.75 respectively). Empty vector was used to equalize the amount of transfected DNA. The transfection was done as described for example 1. Twenty seven hours later the cells were extracted as described in example 1. The lysates were incubated with ELISA plates coated with an anti CD40 mAb (R01, Schwabe et al. 1997). After two hours the plates were washed with PBS/tween and developed with a commercially available rabbit anti NIK antibody (Santa Cruz at 1:100 dilution, SC-6363) and HRP-labeled goat anti rabbit Ig antibody (Pharmingen). The recruitment assay for NIK is schematically represented in FIG. 5A.

p75TNFR = target: T4, p75TNFR (Homo sapiens, UniProt P20333+P25942); assay: Recruitment assay with hybrid receptor (CD40 extracellular domain, p75TNFR transmembrane and intracellular domain); conditions: 293T cells
T4 construct: cDNA fragments encoding for the transmembrane and cytoplasmic domains of the LTβR, TACI, the p75TNF receptor, CD27; expressed in transfected cells; host or cells: 293T
T4 sequence (P25942+P20333 fused): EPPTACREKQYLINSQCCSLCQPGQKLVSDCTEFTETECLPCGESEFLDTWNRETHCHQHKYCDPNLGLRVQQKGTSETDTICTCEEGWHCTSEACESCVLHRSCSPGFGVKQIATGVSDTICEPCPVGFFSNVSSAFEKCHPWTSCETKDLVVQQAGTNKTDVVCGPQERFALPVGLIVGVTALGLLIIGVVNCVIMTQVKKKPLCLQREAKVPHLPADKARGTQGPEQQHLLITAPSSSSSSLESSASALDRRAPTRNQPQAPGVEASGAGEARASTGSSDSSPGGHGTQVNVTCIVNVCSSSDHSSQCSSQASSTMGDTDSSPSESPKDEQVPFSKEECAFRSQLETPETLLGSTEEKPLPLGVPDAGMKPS
Experimental: as §1, with “By comparing unknown samples to these extracts, it was possible to determine the relative CD40-TRAF complex concentrations in arbitrary units.” left out
Recruitment of various TRAFs to receptors different to CD40, was tested by the recruitment assay described in example 1 by transforming cells with expression plasmids encoding hybrids receptors comprising the extracellular domain of CD40 and transmembrane and intracellular domain of anyone of the following receptors: BCMA (Madry et al. 1998 and Hatzoglou et al. 2000) the LTβR-receptor (Mosialos et al. 1995, Crowe et al. 1994, Nakano et al. 1996), TACI (von Bulow et al. 1997, Xia et al. 2000) the p75TNFR (Rothe et al. 1994) and the CD27 (Gravestein et al. 1998, Akiba et al. 1998) (for details of constructs see example 7). Measurement of TRAF recruitment to the signalling domains of BCMA the LTβR-receptor TACI the p75TNFR or the CD27 was carried out by co-transfecting 293T cells with a plasmid encoding anyone of the above hybrid receptors together with a plasmid encoding TRAF and measurement of the TRAF/Receptor complex using the ELISA sandwich described in example 1 and the quantitation as described in example 3. […]

BCMA = target: T5, BCMA (Homo sapiens, UniProt P25942+Q02223); assay: Recruitment assay with hybrid receptor (CD40 extracellular domain, BCMA transmembrane and intracellular domain); conditions: 293T cells
T5 construct: transmembrane and intracellular domain of anyone of the following receptors: BCMA; expressed in transfected cells; host or cells: 293T
T5 sequence (P25942+Q02223 fused, species assumed): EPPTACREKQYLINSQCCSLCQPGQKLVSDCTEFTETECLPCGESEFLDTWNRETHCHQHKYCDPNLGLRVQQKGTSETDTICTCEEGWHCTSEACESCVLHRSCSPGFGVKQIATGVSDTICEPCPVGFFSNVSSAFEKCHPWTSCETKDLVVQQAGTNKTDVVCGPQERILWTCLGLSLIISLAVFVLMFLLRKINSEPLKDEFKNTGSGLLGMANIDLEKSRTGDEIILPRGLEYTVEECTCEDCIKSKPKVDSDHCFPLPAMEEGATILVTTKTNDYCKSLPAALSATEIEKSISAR
Experimental: as §1

TACI = target: T6, TACI (Homo sapiens, UniProt O14836+P25942); assay: Recruitment assay with hybrid receptor (CD40 extracellular domain, TACI transmembrane and intracellular domain); conditions: 293T cells
T6 construct: cDNA fragments encoding for the transmembrane and cytoplasmic domains of the LTβR, TACI, the p75TNF receptor, CD27; expressed in transfected cells; host or cells: 293T
T6 sequence (P25942+O14836 fused, species assumed): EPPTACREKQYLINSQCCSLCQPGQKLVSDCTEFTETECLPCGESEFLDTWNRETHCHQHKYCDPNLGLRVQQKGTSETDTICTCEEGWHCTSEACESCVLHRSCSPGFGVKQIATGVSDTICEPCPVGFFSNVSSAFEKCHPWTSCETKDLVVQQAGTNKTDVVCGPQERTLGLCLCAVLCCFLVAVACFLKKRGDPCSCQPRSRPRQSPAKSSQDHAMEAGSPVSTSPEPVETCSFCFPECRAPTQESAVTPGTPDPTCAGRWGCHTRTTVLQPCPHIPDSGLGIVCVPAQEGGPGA
Experimental: as §1

CD27 = target: T7, CD27 (Homo sapiens, UniProt P25942+P26842); assay: Recruitment assay with hybrid receptor (CD40 extracellular domain, CD27 transmembrane and intracellular domain); conditions: 293T cells
T7 construct: cDNA fragments encoding for the transmembrane and cytoplasmic domains of the LTβR, TACI, the p75TNF receptor, CD27; expressed in transfected cells; host or cells: 293T
T7 sequence (P25942+P26842 fused, species assumed): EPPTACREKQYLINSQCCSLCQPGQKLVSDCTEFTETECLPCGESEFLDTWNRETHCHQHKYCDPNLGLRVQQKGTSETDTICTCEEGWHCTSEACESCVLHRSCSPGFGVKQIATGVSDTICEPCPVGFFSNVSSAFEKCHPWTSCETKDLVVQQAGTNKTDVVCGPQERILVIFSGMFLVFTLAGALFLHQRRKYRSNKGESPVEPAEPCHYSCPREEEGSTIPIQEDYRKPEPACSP
Experimental: as §1

| recruitment to CD40 mutant E235A (CD40 mutants) | recruitment to LTβR, folds higher than recruitment to CD40 (LTβR; CD40 as relative standard) | recruitment of NIK to CD40 when IKK was co-expressed (CD40; myc-tagged IKKα co-transfected) | recruitment of NIK to CD40, dependence on adaptor (CD40; with or without TRAF2 co-transfection) | recruitment to LTβR compared with the other receptors tested (LTβR) | recruitment to p75TNFR compared with the other receptors tested (p75TNFR) | recruitment to BCMA compared with the other receptors tested (BCMA) | recruitment to TACI compared with the other receptors tested (TACI) | recruitment to CD27 compared with the other receptors tested (CD27) | Molecule |
| --- | --- | --- | --- | --- | --- | --- | --- | --- | --- |
| reduced recruitment | about 152 fold |  |  |  |  |  |  |  | TRAF5: TRAF5 adaptor protein, expressed as tagged deletion mutant, amino acids 145 to 557 (protein, UniProt O00463 145-557, looked up, fragment, His tag) REPVLRKDLKEHLSASCQFRKEKCLYCKKDVVVINLQNHEENLCPEYPVFCPNNCAKIILKTEVDEHLAVCPEAEQDCPFKHYGCAVTDKRRNLQQHEHSALREHMRLVLEKNVQLEEQISDLHKSLEQKESKIQQLAETIKKLEKEFKQFAQLFGKNGSFLPNIQVFASHIDKSAWLEAQVHQLLQMVNQQQNKFDLRPLMEAVDTVKQKITLLENNDQRLAVLEEETNKHDTHINIHKAQLSKNEERFKLLEGTCYNGKLIWKVTDYKMKKREAVDGHTVSIFSQSFYTSRCGYRLCARAYLNGDGSGRGSHLSLYFVVMRGEFDSLLQWPFRQRVTLMLLDQSGKKNIMETFKPDPNSSSFKRPDGEMNIASGCPRFVAHSVLENAKNAYIKDDTLFLKVAVDLTDLEDL |
|  |  | clearly improved | TRAF2 dependent |  |  |  |  |  | NIK: kinase, a downstream mediator in the NF-κB pathway, recruited to CD40 via TRAF2 (protein, UniProt Q99558 1-947, looked up) Mitogen-activated protein …: MAVMEMACPGAPGSAVGQQKELPKAKEKTPPLGKKQSSVYKLEAVEKSPVFCGKWEILNDVITKGTAKEGSEAGPAAISIIAQAECENSQEFSPTFSERIFIAGSKQYSQSESLDQIPNNVAHATEGKMARVCWKGKRRSKARKKRKKKSSKSLAHAGVALAKPLPRTPEQESCTIPVQEDESPLGAPYVRNTPQFTKPLKEPGLGQLCFKQLGEGLRPALPRSELHKLISPLQCLNHVWKLHHPQDGGPLPLPTHPFPYSRLPHPFPFHPLQPWKPHPLESFLGKLACVDSQKPLPDPHLSKLACVDSPKPLPGPHLEPSCLSRGAHEKFSVEEYLVHALQGSVSSGQAHSLTSLAKTWAARGSRSREPSPKTEDNEGVLLTEKLKPVDYEYREEVHWATHQLRLGRGSFGEVHRMEDKQTGFQCAVKKVRLEVFRAEELMACAGLTSPRIVPLYGAVREGPWVNIFMELLEGGSLGQLVKEQGCLPEDRALYYLGQALEGLEYLHSRRILHGDVKADNVLLSSDGSHAALCDFGHAVCLQPDGLGKSLLTGDYIPGTETHMAPEVVLGRSCDAKVDVWSSCCMMLHMLNGCHPWTQFFRGPLCLKIASEPPPVREIPPSCAPLTAQAIQEGLRKEPIHRVSAAELGGKVNRALQQVGGLKSPWRGEYKEPRHPPPNQANYHQTLHAQPRELSPRAPGPRPAEETTGRAPKLQPPLPPEPPEPNKSPPLTLSKEESGMWEPLPLSSLEPAPARNPSSPERKATVPEQELQQLEIELFLNSLSQPFSLEEQEQILSCLSIDSLSLSDDSEKNPSKASQSSRDTLSSGVHSWSSQAEARSSSWNMVLARGRPTDTPSYFNGVKVQIQSLNGEHLHIREFHRVKVGDIATGISSQIPAAAFSLVTKDGQPVRYDMEVPDSGIDLQCTLAPDGSFAWSWRVKHGQLENRP |
| reduced recruitment |  |  |  | similar | similar | similar | similar | similar | TRAF3: TNF receptor associated factor 3, adaptor protein expressed from pcDNA3 (protein, UniProt Q13114 1-568, looked up, full-length, TNF receptor associated factor 3, adaptor protein expressed from pcDNA3) MESSKKMDSPGALQTNPPLKLHTDRSAGTPVFVPEQGGYKEKFVKTVEDKYKCEKCHLVLCSPKQTECGHRFCESCMAALLSSSSPKCTACQESIVKDKVFKDNCCKREILALQIYCRNESRGCAEQLMLGHLLVHLKNDCHFEELPCVRPDCKEKVLRKDLRDHVEKACKYREATCSHCKSQVPMIALQKHEDTDCPCVVVSCPHKCSVQTLLRSELSAHLSECVNAPSTCSFKRYGCVFQGTNQQIKAHEASSAVQHVNLLKEWSNSLEKKVSLLQNESVEKNKSIQSLHNQICSFEIEIERQKEMLRNNESKILHLQRVIDSQAEKLKELDKEIRPFRQNWEEADSMKSSVESLQNRVTELESVDKSAGQVARNTGLLESQLSRHDQMLSVHDIRLADMDLRFQVLETASYNGVLIWKIRDYKRRKQEAVMGKTLSLYSQPFYTGYFGYKMCARVYLNGDGMGKGTHLSLFFVIMRGEYDALLPWPFKQKVTLMLMDQGSSRRHLGDAFKPDPNSSSFKKPTGEMNIASGCPVFVAQTVLENGTYIKDDTIFIKVIVDTSDLPDP |
